For assay [1], the target named is GST-Nef (HIV-1 NL4-3 Nef containing a T71R change) (HIV-1 NL4-3) [GST: P08515]. The assay can be described thus: competition plate assay: unlabeled GST-SH3 vs biotinylated Hck-SH3 probe (66 nM) on immobilized GST-Nef.
Assay [2] shares this target.
Assay [3] has as its target GST-NefR90 (HIV-1 Nef carrying an F90R mutation) (HIV-1) [GST: P08515].
Assay [4] has the same target. Description: estimated from competition by Hck-SH3 and the earlier KD 1.99 µM of Hck-SH3/NefR90.
The target of assay [5] is GST-Nef (HIV-1 NL4-3 Nef containing a T71R change) (HIV-1 NL4-3) [GST: P08515]. Description: calculated from competition with Hck-SH3 probe on immobilized Nef, based on KD 250 nM of Hck-SH3/Nef.
The target of assay [6] is GST-NefR90 (HIV-1 Nef carrying an F90R mutation) (HIV-1) [GST: P08515]. The source holds these as a separate data set.
Assay [7] deals with GST-Nef (HIV-1 NL4-3 Nef containing a T71R change) (HIV-1 NL4-3) [GST: P08515]. The source holds these as a separate data set.

The inhibition is how much of the control response was suppressed. By pKd is commonly meant −log10 of the Kd, conventionally taken in molar units. In general, pIC50 refers to the IC50 on a negative log10 scale, so that one unit is a factor of ten. A lower pIC50 goes with a large IC50.

pIC50, pKd: −log10 of the molar value. Some results are limits rather than exact numbers.

As for “GST-RRT.m1 (Hck-derived RRT-SH3 domain selected on NefR90, RT-loop QGFLDQ) (from UniProt P08631 62-118) (designed binder)”, in assay [1], the ratio of competitor per probe giving 50% inhibition (1:x competitor:probe) is 0.8. The inhibition at an equimolar probe:competitor ratio was under 5% in assay [2] and 73% in assay [3].
Regarding “GST-RRT.m4 (Hck-derived RRT-SH3 domain selected on NefR90, RT-loop ESYSEW) (from UniProt P08631 62-118) (designed binder)”, the inhibition at an equimolar probe:competitor ratio in assay [2] was under 5%; in assay [3], 46%.
As for “GST-RRT.m3 (Hck-derived RRT-SH3 domain selected on NefR90, RT-loop EAWSPL) (from UniProt P08631 62-118) (designed binder)”, the ratio of competitor per probe giving 50% inhibition (1:x competitor:probe) in assay [1] was 17. Moreover, the values for the inhibition at an equimolar probe:competitor ratio in assay [2] and in assay [3] were 22% and 62%, respectively.
In the same order, the values of “GST-RRT.B4 (Hck-derived RRT-SH3 domain, RT-loop FSPFDW) (from UniProt P08631 62-118) (designed binder)” are 21, 41% and 37%.
In the case of “GST-RRT.C4 (Hck-derived RRT-SH3 domain, RT-loop DSWFPW) (from UniProt P08631 62-118) (designed binder)”, in assay [1], the ratio of competitor per probe giving 50% inhibition (1:x competitor:probe) was determined as 14. In addition, the results for the inhibition at an equimolar probe:competitor ratio in assay [2] and in assay [3] were 10% and 19%, respectively.
In the same order, the values of “GST-RRT.A2 (Hck-derived RRT-SH3 domain, RT-loop FSWSDT) (from UniProt P08631 62-118) (designed binder)” are 19, 20% and 53%.
Taken in the same sequence, the figures for “GST-RRT.m2 (Hck-derived RRT-SH3 domain selected on NefR90, RT-loop NAFLPS) (from UniProt P08631 62-118) (designed binder)” were 2, under 5% and 73%.
As for “GST-RRT.A1 (Hck-derived RRT-SH3 domain, RT-loop VSWSPD) (from UniProt P08631 62-118) (designed binder)”, in assay [1], the ratio of competitor per probe giving 50% inhibition (1:x competitor:probe) stood at 35. Besides, the pKd was over 7.00 in assay [4] and 8.15 in assay [5]. Further, the inhibition at an equimolar probe:competitor ratio was 55% in assay [2] and 52% in assay [3].
Consider “GST-RRT.D1 (Hck-derived RRT-SH3 domain, RT-loop SSFYSS) (from UniProt P08631 62-118) (designed binder)”, for which, in assay [1], the ratio of competitor per probe giving 50% inhibition (1:x competitor:probe) was 22. Moreover, the inhibition at an equimolar probe:competitor ratio in assay [2] came out at 45%; in assay [3], 17%.
In the same order, the values of “GST-RRT.A4 (Hck-derived RRT-SH3 domain, RT-loop YSWSDM) (from UniProt P08631 62-118) (designed binder)” are 10, 34% and 44%.
Turning to “GST-RRT.C3 (Hck-derived RRT-SH3 domain, RT-loop YSDFPW) (from UniProt P08631 62-118) (designed binder)”, the ratio of competitor per probe giving 50% inhibition (1:x competitor:probe) in assay [1] stood at 26. The inhibition at an equimolar probe:competitor ratio in assay [2] amounted to 42%; in assay [3] it was 20%.
As to “GST-RRT.C1 (Hck-derived RRT-SH3 domain, RT-loop TSPFPW) (from UniProt P08631 62-118) (designed binder)”, the ratio of competitor per probe giving 50% inhibition (1:x competitor:probe) in assay [1] was 31. In addition, the inhibition at an equimolar probe:competitor ratio in assay [2] was 39%; in assay [3], under 5%. In addition, in assay [5], the pKd was 8.15.
As to “GST-RRT.B1 (Hck-derived RRT-SH3 domain, RT-loop WSPFPS) (from UniProt P08631 62-118) (designed binder)”, the ratio of competitor per probe giving 50% inhibition (1:x competitor:probe) in assay [1] was found to be 26. Moreover, the values for the inhibition at an equimolar probe:competitor ratio in assay [2] and in assay [3] were 41% and 9%, respectively.
Taken in the same sequence, the figures for “GST-RRT.C2 (Hck-derived RRT-SH3 domain, RT-loop YSFFPW) (from UniProt P08631 62-118) (designed binder)” were 16, 20% and 13%.
In the same order, the values of “GST-RRT.B2 (Hck-derived RRT-SH3 domain, RT-loop DSPFSF) (from UniProt P08631 62-118) (designed binder)” are 22, 22% and 26%.
With “GST-Hck-SH3 (native Hck SH3 domain, GST fusion protein) (from UniProt P08631 78-138)”, the ratio of competitor per probe giving 50% inhibition (1:x competitor:probe) in assay [1] worked out at 1. Further, the inhibition at an equimolar probe:competitor ratio in assay [2] is under 5%. Further, the inhibition at an equimolar probe:competitor ratio in assay [3] was under 5%. In assay [6], this substance gave a pIC50 of under 5.96 and a fold molar excess over the probe needed for 50% inhibition of over 16 fold. Also, in assay [7], the pIC50 was under 6.07 and the fold excess over the probe needed for 50% inhibition was over 100 fold.
Turning to “GST-RRT.B6 (Hck-derived RRT-SH3 domain, RT-loop YSPFSW) (from UniProt P08631 62-118) (designed binder)”, the ratio of competitor per probe giving 50% inhibition (1:x competitor:probe) in assay [1] amounted to 37. In addition, the inhibition at an equimolar probe:competitor ratio in assay [2] was 51%; in assay [3] it was 14%. Further, in assay [5], the pKd is 8.15.

These data come from patent US6794144.
